Test [1] concerns the target Vtc4* (Vtc4(1–487), SPX and TTM domains of Vtc4 without the transmembrane domain) (S. cerevisiae) (UniProt P47075). Description: MST; as a1, MST buffer supplemented with 2.5 mM IP6.
Test [2] has the same target. Briefly: MST; as a1, MST buffer supplemented with 2.5 mM 1,5-IP8.
The target is the same in test [3]. Briefly: MST; as a1, MST buffer supplemented with 2.5 mM natural 5-IP7.
Test [4] has the same target. Briefly: MST. The following applies: domain or fragment.

pKd: −log10 of the molar value.

Sequence of Vtc4* (Vtc4(1–487), SPX and TTM domains of Vtc4 without the transmembrane domain) (S. cerevisiae) (P47075 1-487): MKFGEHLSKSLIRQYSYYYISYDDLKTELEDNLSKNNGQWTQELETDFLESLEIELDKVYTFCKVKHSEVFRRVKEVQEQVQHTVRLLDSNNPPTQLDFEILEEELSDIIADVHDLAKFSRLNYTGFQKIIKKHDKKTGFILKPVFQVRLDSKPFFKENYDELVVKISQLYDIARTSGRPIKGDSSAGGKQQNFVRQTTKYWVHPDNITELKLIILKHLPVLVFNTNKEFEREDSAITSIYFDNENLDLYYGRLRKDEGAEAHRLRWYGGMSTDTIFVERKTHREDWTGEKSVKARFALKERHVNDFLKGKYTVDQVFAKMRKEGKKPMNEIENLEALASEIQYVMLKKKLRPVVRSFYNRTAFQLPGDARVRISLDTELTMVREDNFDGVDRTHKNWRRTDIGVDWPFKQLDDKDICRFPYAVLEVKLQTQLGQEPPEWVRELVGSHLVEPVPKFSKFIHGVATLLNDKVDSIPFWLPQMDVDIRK
Sequence of SPX2∆α1 (SPX2 with helix α1 truncated) (P43585 1-151): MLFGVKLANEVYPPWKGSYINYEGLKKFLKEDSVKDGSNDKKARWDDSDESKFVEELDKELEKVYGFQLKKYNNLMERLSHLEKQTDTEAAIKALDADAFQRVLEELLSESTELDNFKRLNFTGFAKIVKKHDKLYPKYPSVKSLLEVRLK

Turning to “SPX2 (SPX domain of Vtc2, Vtc2(1–201)) (from UniProt P43585 1-201) (domain or fragment)”, the fold decrease of affinity with 2.5 mM IP6 against no ligand in test [1] is above 20 fold. The same substance showed a fold decrease of affinity with 2.5 mM 1,5-IP8 against no ligand in test [2] above 100000 fold. For the same substance, the fold decrease of affinity with 2.5 mM 5-IP7 against no ligand in test [3] was 85 fold.
Usually pKd stands for the negative decadic logarithm of the Kd, by convention in mol/L. High values mean a low Kd, low ones a high Kd. Take SPX2∆α1 (SPX2 with helix α1 truncated): in test [4], the negative-log Kd (pKd) is 3.00.

These data come from paper PMC10167327.
